Experiments:
[1] = target: HLA-A*69:01; assay: IEDB peptide-MHC binding, purified MHC/direct/fluorescence; filed as Kd, often an IC50 or EC50 that approximates it; ≥ and ≤ were set here for values at or beyond the usual limits of such assays; details: source organism: Vibrio cholerae
[2] = target: HLA-B*58:01; assay: as above
[3] = target: HLA-B*07:02; assay: as above; details: source organism: Vibrio cholerae
[4] = target: HLA-B*44:02; assay: as above; details: source organism: Vibrio cholerae
[5] = target: HLA-A*26:01; assay: as above; details: source organism: Vibrio cholerae
[6] = target: HLA-B*40:01; assay: as above; details: source organism: Vibrio cholerae
[7] = target: HLA-B*15:01; assay: as above; details: source organism: Vibrio cholerae
[8] = target: HLA-A*01:01; assay: as above; details: source organism: Vibrio cholerae
[9] = target: HLA-A*24:03; assay: as above; details: source organism: Vibrio cholerae
[10] = target: HLA-A*11:01; assay: as above; details: source organism: Vibrio cholerae
[11] = target: HLA-A*02:01; assay: as above; details: source organism: Vibrio cholerae
[12] = target: HLA-B*27:05; assay: as above; details: source organism: Vibrio cholerae
[13] = target: HLA-B*08:01; assay: as above; details: source organism: Vibrio cholerae
[14] = target: HLA-A*03:01; assay: as above; details: source organism: Vibrio cholerae
[15] = target: HLA-B*15:03; assay: IEDB peptide-MHC binding, purified MHC/competitive/radioactivity; filed as Kd, often an IC50 or EC50 that approximates it; ≥ and ≤ were set here for values at or beyond the usual limits of such assays; details: source organism: Vaccinia virus WR
[16] = target: HLA-B*35:01; assay: as above
[17] = target: HLA-B*51:01; assay: as above
[18] = target: HLA-B*07:02; assay: as above
[19] = target: HLA-B*54:01; assay: as above
[20] = target: HLA-B*53:01; assay: as above
[21] = target: HLA-A*11:01; assay: as above
[22] = target: HLA-A*33:01; assay: as above
[23] = target: HLA-A*31:01; assay: as above
[24] = target: HLA-A*68:01; assay: as above
[25] = target: HLA-A*03:01; assay: as above
[26] = target: HLA-A*02:01; assay: IEDB peptide-MHC binding, purified MHC/competitive/fluorescence; filed as Kd, often an IC50 or EC50 that approximates it; ≥ and ≤ were set here for values at or beyond the usual limits of such assays; details: source organism: Vaccinia virus Copenhagen
[27] = target: HLA-B*15:01; assay: IEDB peptide-MHC binding, purified MHC/competitive/radioactivity; filed as Kd, often an IC50 or EC50 that approximates it; ≥ and ≤ were set here for values at or beyond the usual limits of such assays; details: source organism: Vaccinia virus WR
[28] = target: HLA-A*30:01; assay: as above; details: source organism: Vaccinia virus WR
[29] = target: HLA-A*32:01; assay: as above; details: source organism: Vaccinia virus WR
[30] = target: HLA-B*08:01; assay: as above; details: source organism: Vaccinia virus WR
[31] = target: HLA-B*57:01; assay: IEDB peptide-MHC binding, purified MHC/direct/fluorescence; filed as Kd, often an IC50 or EC50 that approximates it; ≥ and ≤ were set here for values at or beyond the usual limits of such assays
[32] = target: HLA-B*15:17; assay: as above
[33] = source organism: Vaccinia virus Copenhagen
[34] = source organism: Vaccinia virus WR
[35] = source organism: Brucella melitensis
[36] = source organism: Lake Victoria marburgvirus - Popp

AYLLQHLDL
Kd [1]: ≥ 20000 nM | Kd ([2]; source organism: Vibrio cholerae): ≥ 20000 nM | Kd [3]: ≥ 20000 nM | Kd [4]: ≥ 20000 nM | Kd [5]: ≥ 20000 nM | Kd [6]: ≥ 20000 nM | Kd [7]: ≥ 20000 nM | Kd [8]: ≥ 20000 nM | Kd [9]: 1.53 nM | Kd [10]: ≥ 20000 nM | Kd [11]: ≥ 20000 nM | Kd [12]: ≥ 20000 nM | Kd [13]: ≥ 20000 nM | Kd [14]: ≥ 20000 nM

FAAMIIRSF
Kd [15]: 1.33 nM

FLIVSLCPT
Kd [16, 33]: 16000 nM | Kd [17, 33]: ≥ 28600 nM | Kd [18, 33]: 12000 nM | Kd [19, 33]: 359 nM | Kd [20, 33]: 6210 nM | Kd [21, 33]: ≥ 48100 nM | Kd [22, 33]: 6550 nM | Kd [23, 33]: 3230 nM | Kd [24, 33]: 5310 nM | Kd [25, 33]: 2590 nM | Kd [26]: 0.3 nM

FQRKPFNNI
Kd [15]: 8.9 nM

FQTVNFNNA
Kd [27]: 8180 nM | Kd [28]: 115 nM | Kd [15]: 305 nM | Kd [29]: ≥ 50900 nM | Kd [30]: 16000 nM

FYSSFVQTF
Kd [15]: 38.8 nM

ILMIFISSF
Kd [15]: 11.9 nM | Kd [29]: 86.7 nM

ILMIFISSFL
Kd [16, 34]: 3050 nM | Kd [17, 34]: 4910 nM | Kd [18, 34]: 16800 nM | Kd [19, 34]: 1500 nM | Kd [20, 34]: 1250 nM | Kd [21, 34]: 1780 nM | Kd [22, 34]: 966 nM | Kd [23, 34]: 625 nM | Kd [24, 34]: 989 nM | Kd [25, 34]: 397 nM

IQHNFTQIA
Kd [15]: 0.251 nM

KAGVRGWFL
Kd [2, 35]: 225 nM | Kd [31, 35]: 71.5 nM | Kd [32, 35]: 2280 nM

KSPDVHEDF
Kd [2, 36]: 921 nM | Kd [31, 36]: 566 nM | Kd [32, 36]: ≥ 20000 nM
